Tests used:
human IL-13 [1] = target: T1, human IL-13 (human, UniProt P35225 35-146, limits assumed); assay: DOM10 sandwich ELISA: dAb dilution series mixed with 150 pg/ml human IL-13, loss of IL-13 detection by the kit antibodies
T1 construct: Biotinylated and captured on a streptavidin chip in the Biacore assays; not biotinylated (IL-13, GSK) in the ELISA and HEK Blue-STAT6 assays; also called human interleukin-13; IL-13 (GSK)
Procedure: dAbs were also tested in DOM10 ELISA to assess the potency against human IL-13 and cell based HEK Blue-STAT6 (HEK STAT) assays to assess the potency against human, cyno and Rhesus IL-13. DOM10 ELISA measures the ability of DOM10 dAbs to bind IL-13 and prevent its binding to an IL-13 detection antibody. A MAXISORP™ plate (high protein binding ELISA plate, Nunc, Denmark) is coated overnight with 2.5 μg/ml coating antibody (Module Set, Bender MedSystems, Vienna, Austria), then washed once with 0.1% (v/v) Tween 20 in PBS before blocking with 0.5% (w/v) BSA 0.05% (v/v) Tween 20 in PBS for 2 hours at room temperature. The plate is washed twice as previously detailed before the addition of 150 pg/ml IL-13 (GSK) mixed with a dilution series of DOM10 dAb (i.e., an anti-IL-13 dAb) and incubated for 1 hour. The plate is washed twice before binding of IL-13 to the capture antibody is detected using biotin conjugated detection antibody (Module Set, Bender Medsystems), followed by peroxidase labelled Streptavidin (Module Set, Bender MedSystems). Finally the plate is washed three times before incubation with TMB substrate (KPL, Gaithersburg, USA), and the reaction stopped by the addition of HCl and the absorbance read at 450 nm. Anti-IL-13 dAb activity causes a decrease in IL-13 binding and therefore a decrease in absorbance compared with the IL-13 only control.

Cynomolgus monkey IL-13 [2] = target: T2, Cynomolgus monkey IL-13 (cynomolgus monkey, UniProt Q0PW92 21-132); assay: Biacore SPR, biotinylated IL-13 on streptavidin chip, dAb as analyte, 1:1 model, 25 C
T2 construct: Biotinylated and captured on a streptavidin chip in the Biacore assays; also called cyno IL-13; cynomolgous IL-13
T2 sequence (Q0PW92 entry or part of it): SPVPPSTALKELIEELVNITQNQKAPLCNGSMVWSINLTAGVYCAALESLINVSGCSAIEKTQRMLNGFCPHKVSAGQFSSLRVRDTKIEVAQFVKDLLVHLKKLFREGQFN
Procedure: (§1) The binding affinities of purified DOM10 dAbs to both human and cyno IL-13 were assessed by Biacore analysis. Analysis was carried out using biotinylated IL-13. About 150 RU of biotinylated IL-13 was coated to a streptavidin (SA) chip (Biacore, GE healthcare). The surface was regenerated back to baseline using 0.1 M Glycine pH 2. dAbs were passed over this surface at defined concentrations using a flow rate of 50 μl/min. Data were analyzed using BIAevaluation software (Biacore, GE Healthcare) and fitted to the 1:1 model of binding. The binding data fitted well to the 1:1 model for all DOM10 dAbs. Biacore runs were carried out at 25° C.

human IL-13 [3] = target: T1, human IL-13; assay: as above
Procedure: as §1

Cynomolgus monkey IL-13 [4] = target: T2, Cynomolgus monkey IL-13; assay: cell-based or functional assay
rhesus IL-13 = rhesus IL-13 (rhesus, UniProt Q864V6 19-132, limits assumed); assay: cell-based or functional assay
Sequence of rhesus IL-13 (Q864V6 19-132 limits assumed): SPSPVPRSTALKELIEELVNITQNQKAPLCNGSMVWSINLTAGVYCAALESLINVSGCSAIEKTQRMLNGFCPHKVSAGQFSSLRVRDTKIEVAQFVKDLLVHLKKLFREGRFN

human IL-13 [5] = target: T1, human IL-13; assay: cell-based or functional assay

T1 sequence (P35225 35-146 limits assumed): as the sequence (Q0PW92 entry or part of it) above, with S1G, K10R, V42M, N67S, R83H, V100L counted along it

B1: DOM10-53-567 (other)
VH: GVQLLESGGGLVQPGGSLRLSCAASGFVFAWYDMGWVRQAPGKGLEWVSSIDWHGEVTYYADSVKGRFTISRDNSKNTLYLQMNSLRAEDTAVYYCATAEDEPGYDYWGQGTLVTVSS
Human IL-13 [1]
  EC50: 0.021 nM
Cynomolgus monkey IL-13 [2]
  Kd: 2.6 nM
Human IL-13 [3]
  Kd: 0.072 nM
Cynomolgus monkey IL-13 [4]
  HEK assay Cyno EC50: 5.1 nM
Rhesus IL-13
  HEK assay Rhesus EC50: 2.8 nM
Human IL-13 [5]
  HEK assay Human EC50: 0.31 nM

B2: DOM10-53-616 (other)
VH: GVQLLESGGGLVQPGGSLRLSCAASGFVFPWYDMGWVRQAPGKGLEWVSSIDWHGKITYYADSVKGRFTISRDNSKNTLYLQMNSLRAEDTAVYYCATAEDEPGYDYWGQGTLVTVSS
Human IL-13 [1]
  EC50: 0.048 nM
Cynomolgus monkey IL-13 [2]
  Kd: 3.2 nM
Human IL-13 [3]
  Kd: 0.13 nM
Cynomolgus monkey IL-13 [4]
  HEK assay Cyno EC50: 5.9 nM
Rhesus IL-13
  HEK assay Rhesus EC50: 7.6 nM
Human IL-13 [5]
  HEK assay Human EC50: 2.9 nM

B3: DOM10-53-568 (other)
VH: GVQLLESGGGLVQPGGSLRLSCAASGFVFAWYDMGWVRQAPGKGLEWVSSIDWHGKITYYADSVKGRFTISRDNSKNTLYLQMNSLRAEDTAVYYCATAEDEPGYDYWGQGTLVTVSS
Cynomolgus monkey IL-13 [2]
  Kd: 1.6 nM
Human IL-13 [3]
  Kd: 0.07 nM
Cynomolgus monkey IL-13 [4]
  HEK assay Cyno EC50: 8.8 nM
Rhesus IL-13
  HEK assay Rhesus EC50: 8.1 nM
Human IL-13 [5]
  HEK assay Human EC50: 0.62 nM

B4: DOM10-53-546 (other)
VH: GVQLLESGGGLVQPGGSLRLSCAASGFVFPWYDMGWVRQAPGKGLEWVSSIDWKGGKTYYADSVKGRFTISRDNSKNTLYLQMNSLRAEDTAVYYCATAEDEPGYDYWGQGTLVTVSS
Human IL-13 [1]
  EC50: 0.125 nM
Cynomolgus monkey IL-13 [2]
  Kd: 2.1 nM
Human IL-13 [3]
  Kd: 0.094 nM
Cynomolgus monkey IL-13 [4]
  HEK assay Cyno EC50: 5.9 nM
Rhesus IL-13
  HEK assay Rhesus EC50: 11.4 nM
Human IL-13 [5]
  HEK assay Human EC50: 1 nM

B5: DOM10-53-474 (other)
VH: GVQLLESGGGLVQPGGSLRLSCAASGFTFAWYDMGWVRQAPGKGLEWVSSIDWHGEVTYYADSVKGRFTISRDNSKNTLYLQMNSLRAEDTAVYYCATAEDEPGYDYWGQGTLVTVSS
notes: Anti-IL-13 immunoglobulin single variable domain (dAb), monomer
Human IL-13 [1]
  EC50: 0.217 nM
Cynomolgus monkey IL-13 [2]
  Kd: 9.3 nM
Human IL-13 [3]
  Kd: 0.259 nM
Cynomolgus monkey IL-13 [4]
  HEK assay Cyno EC50: 30.1 nM
Rhesus IL-13
  HEK assay Rhesus EC50: 30.2 nM
Human IL-13 [5]
  HEK assay Human EC50: 2 nM

— patent publication US20110236380A1 (published 2011)
